The values below come from PMC4041426, “Structural basis for binding the TREX2 complex to nuclear pores, GAL1 localisation and mRNA export” (Nucleic Acids Research, 2014).

The chains are these.
T1: Sus1 (S. cerevisiae, UniProt Q6WNK7 1-96)
T1 construct: Sus1, S. cerevisiae; also called Sus1A; Sus1B; source: E. coli BL21 (DE3) CodonPlus RIL; in clarified lysate (assembly pull-down), purified within Sac3 complexes (crystals)
T1 sequence: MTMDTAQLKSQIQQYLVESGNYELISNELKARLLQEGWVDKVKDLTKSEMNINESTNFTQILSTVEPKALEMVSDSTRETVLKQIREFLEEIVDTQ

T2: Kap95 (yeast, UniProt Q06142 1-861)
T2 construct: Kap95 (protein import karyopherin), yeast; also called karyopherin Kap95; yeast Kap95
T2 sequence (looked up): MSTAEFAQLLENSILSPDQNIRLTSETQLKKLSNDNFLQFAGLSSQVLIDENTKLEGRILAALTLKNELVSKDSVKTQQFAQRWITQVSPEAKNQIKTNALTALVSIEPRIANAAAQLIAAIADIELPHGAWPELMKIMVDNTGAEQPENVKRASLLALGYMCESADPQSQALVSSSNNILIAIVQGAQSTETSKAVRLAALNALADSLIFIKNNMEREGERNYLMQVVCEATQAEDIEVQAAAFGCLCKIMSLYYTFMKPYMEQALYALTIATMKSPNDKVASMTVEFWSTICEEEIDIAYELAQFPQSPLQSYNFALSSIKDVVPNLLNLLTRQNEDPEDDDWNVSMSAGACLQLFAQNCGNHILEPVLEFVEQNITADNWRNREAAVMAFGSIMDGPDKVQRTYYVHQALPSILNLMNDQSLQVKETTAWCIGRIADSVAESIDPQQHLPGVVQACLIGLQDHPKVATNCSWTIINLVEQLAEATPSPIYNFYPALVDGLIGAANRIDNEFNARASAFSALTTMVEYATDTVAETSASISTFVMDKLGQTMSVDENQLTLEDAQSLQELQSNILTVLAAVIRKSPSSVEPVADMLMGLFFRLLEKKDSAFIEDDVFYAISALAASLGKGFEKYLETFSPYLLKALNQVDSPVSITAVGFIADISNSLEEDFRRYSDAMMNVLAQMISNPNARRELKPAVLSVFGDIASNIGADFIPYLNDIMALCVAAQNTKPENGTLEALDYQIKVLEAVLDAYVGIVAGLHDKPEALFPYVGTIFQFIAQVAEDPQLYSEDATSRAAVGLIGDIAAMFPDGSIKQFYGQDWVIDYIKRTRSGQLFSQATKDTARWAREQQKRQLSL

T3: Cdc31 (S. cerevisiae, UniProt P06704 1-161)
T3 construct: Cdc31, S. cerevisiae; source: E. coli BL21 (DE3) CodonPlus RIL, co-expressed with Sac3 fragments; in clarified lysate (assembly pull-down), purified within Sac3 complexes (crystals)
T3 sequence: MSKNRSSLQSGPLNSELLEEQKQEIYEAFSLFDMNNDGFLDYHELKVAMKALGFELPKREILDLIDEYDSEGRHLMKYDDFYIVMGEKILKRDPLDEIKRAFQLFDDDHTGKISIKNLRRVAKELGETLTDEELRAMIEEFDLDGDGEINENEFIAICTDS

T4: Sac3^753–805:Sus1B:Cdc31 complex (S. cerevisiae, UniProt P46674 753-805; Q6WNK7 1-96; P06704 1-161)
T4 construct: Sac3, S. cerevisiae, residues 753–805 (BC); Sus1, S. cerevisiae (the Sus1B chain); Cdc31, S. cerevisiae; also called BC sub-complex; source: E. coli BL21 (DE3) CodonPlus RIL; cells with co-expressed Sac3:Cdc31 mixed with cells with Sus1; copies: 1 + 1 + 1
T4 sequence 1: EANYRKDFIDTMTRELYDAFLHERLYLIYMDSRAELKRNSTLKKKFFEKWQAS
T4 sequence 2: T1 sequence
T4 sequence 3: T3 sequence

B1: Sac3^757–787 (domain or fragment, S. cerevisiae, UniProt P46674 757-787, looked up)
chain: RKDFIDTMTRELYDAFLHERLYLIYMDSRAE
notes: source: E. coli BL21 (DE3) CodonPlus RIL, purified in complex with Sus1B
B2: Sac3^757–787:Sus1B (complex, S. cerevisiae)
chain 1: B1 chain
chain 2: T1 sequence
notes: Sus1, S. cerevisiae (the Sus1B chain); also called B sub-complex; Sac3:Sus1B; copies: 1 + 1
B3: GST-Nup1^371–500 (domain or fragment, S. cerevisiae, UniProt P20676 371-500, looked up)
chain: DKSTKTAEAPTLSFNFSQKANKTKAVDNTVPSTTLFNFGGKSDTVTSASQPFKFGKTSEKSENHTESDAPPKSTAPIFSFGKQEENGDEGDDENEPKRKRRLPVSEDTNTKPLFDFGKTGDQKETKKGES
notes: source: E. coli BL21 (DE3) CodonPlus RIL; immobilised on Glutathione Sepharose 4B from clarified lysate; not shown: GST, N-terminal, kept
B4: Sac3^753–805 (domain or fragment, S. cerevisiae, UniProt P46674 753-805, looked up)
chain: T4 sequence 1
notes: Sac3, S. cerevisiae, residues 753–805 (BC); also called BC fragment; source: E. coli BL21 (DE3) CodonPlus RIL, purified in complex with Sus1B and Cdc31
B5: Nup1^322–355 (domain or fragment, S. cerevisiae, UniProt P20676 322-355, looked up)
chain: PKKDKESIVLPTVGFDFIKDNETPSKKTSPKATS
notes: Residues 326–340 were built in the model; also called Nup1 fragment; source: E. coli BL21 (DE3) CodonPlus RIL, purified (Glutathione Sepharose, TEV release, Superdex75); not shown: GST, N-terminal, cleaved
B6: GST-Nup1^191–385 (domain or fragment, S. cerevisiae, UniProt P20676 191-385, looked up)
chain: KNRSNRKRFHSQSKGTVWSANFEYDLSEYDAIQKKDNKDKEGNAGGDQKTSENRNNIKSSISNGNLATGPNLTSEIEDLRADINSNRLSNPQKNLLLKGPASTVAKTAPIQESFVPNSERSGTPTLKKNIEPKKDKESIVLPTVGFDFIKDNETPSKKTSPKATSSAGAVFKSSVEMGKTDKSTKTAEAPTLSFN
notes: as for B3
B7: Nup1^316–340 (domain or fragment, S. cerevisiae, UniProt P20676 316-340, looked up)
chain: LKKNIEPKKDKESIVLPTVGFDFIK
notes: Nup1, S. cerevisiae, residues 316–340; Residues 330–340 were built in the model; also called Nup1 fragment; source: E. coli BL21 (DE3) CodonPlus RIL, purified (Glutathione Sepharose, TEV release, Superdex75); not shown: GST, N-terminal, cleaved

Holding throughout (conditions): both partners purified
Assay [1] deals with T1, Sus1. Description: crystal structure; Nup1^322–355 mixed 6:1 with Sac3^757–787:Sus1B (15 mg/ml); 2.2–2.35 M ammonium sulphate, 100 mM Na citrate pH 5.6; P3_(2)21, 3.0 Å.
In the assay “GST-Nup1^191–385” the target is B6. Put plainly: pull-down; GST-Nup fusion (or GST) immobilised on Glutathione Sepharose 4B from clarified bacterial lysate and washed with PBS-DTT; purified Sac3^CID complex, sub-complex, mutant variant or Kap95 added at 15.4 μM; 4°C, 1 h; SDS-PAGE and Coomassie staining.
The target of another assay is T2, Kap95. The assay is described as above.
A further assay concerns the target T3, Cdc31. Description: crystal structure; Nup1^316–340 mixed 7:1 with Sac3^753–805:Sus1B:Cdc31 (14.6 mg/ml); 16% PEG600, 2% PEG 1K, 10% glycerol, 100 mM MES pH 6.0; P2_(1), 2.6 Å.
For assay [2], the target named is T1, Sus1. Described as above.
The assay “Sac3^757–787” deals with B1. Description: crystal structure; Nup1^322–355 mixed 6:1 with Sac3^757–787:Sus1B (15 mg/ml); 2.2–2.35 M ammonium sulphate, 100 mM Na citrate pH 5.6; P3_(2)21, 3.0 Å.
The assay “Sac3^757–787:Sus1B” has as its target B2. Described as above.
Assay [3] concerns the target T4, Sac3^753–805:Sus1B:Cdc31 complex. Description: pull-down; GST-Nup fusion (or GST) immobilised on Glutathione Sepharose 4B from clarified bacterial lysate and washed with PBS-DTT; purified Sac3^CID complex, sub-complex, mutant variant or Kap95 added at 15.4 μM; 4°C, 1 h; SDS-PAGE and Coomassie staining.
For assay [4] the target is unchanged. Description: crystal structure; Nup1^316–340 mixed 7:1 with Sac3^753–805:Sus1B:Cdc31 (14.6 mg/ml); 16% PEG600, 2% PEG 1K, 10% glycerol, 100 mM MES pH 6.0; P2_(1), 2.6 Å.

Take B1: the binding result in the assay with Sus1 [1] is given as “binds”. For the molecule B2, in the assay with GST-Nup1^191–385, the binding result is listed as “binds”. In the case of B3, the binding result in the assay with Kap95 is reported as “binds”.

As for B4, the binding result with Cdc31 and in the assay with Sus1 [2] was “binds” throughout. Consider B5, for which the binding result with Sac3^757–787, with Sus1 [1] and in the assay with Sac3^757–787:Sus1B was “binds” in each case. Consider B6, for which the binding result in assay [3] is on record as “binds”. With B7, in [4], the binding result is “binds”.
